Test results published in publication PMC8005835.

Biological target: Von Willebrand factor (VWF) (human) (UniProt P04275)
Experiment: specific fVIII activity of the purified complex; heparin-Sepharose purified starting material, VWF 0.54 mg/ml and fVIII activity 38 U/ml (one-stage coagulation assay); mass ratio worked out with a cited specific activity of fVIII of ~5000 U/mg

blood coagulation factor VIII (fVIII) (natural protein)
percentage mass ratio of fVIII to VWF: 1%
